# Measurements: article PMC6615493, “The Role of Iron and Copper on the Oligomerization Dynamics of DR_2577, the Main S-Layer Protein of Deinococcus radiodurans” (Frontiers in Microbiology, 2019)
# Several values for one entry are separate records, joined by “and”; a condition that tells them apart may be missing. Equal entries are not always repeated.
# B1: DR_2577, the main S-layer protein of Deinococcus radiodurans (natural protein, UniProt Q9RRB6 23-1167, looked up)
# chain: APVSAPQVPALTDVPAGHWAKDAIDRLVSRGVILGYPDGTFRGTQNLTRYEAAIIIARLLDQMRDGETPAGMTAEDMTALQNAIQELAADLAALGVRVSDLEANAVSKDDFARLEARIEEVAAAGGEQGATEALQGQIDDLTARVDEYDALRADVDDNASSIAALNDLTVLLNQDILDLQDRVSAVEAAQADFVQRSDFDALGGRVTTVETRVETVNNSLTGRIAALERNAFSVKPSLTIGYSVSRTSRNFDVDRLFPLNADGTVANNAFTSGGIDTDTGAQRRDFGDFGNASDPVVAGAAGLYGFADGVSYTVYFTDGSTATFDGLNPADYKVPTGKVIDTTKGRNGFGFNNLARYKEGSTDIGISLGFDTSGQFSQVTSGTGGSLFSTAGRLQVNQIDLNFGLVTGLPSDAYVDTNGNGKKDDGEATGRGTYLGSGGTAAILRDPAGNVYRPVFFRFKNATTQFSVGNNPVIVTLGQQQKFYFSDYVFDNNYDGRGDGFTVTVDGSNVPVIGAWKPQIKGVYGSRSGLDGTAEAGYGVYYRGVRAQITPVGTLTAGIHYAQEGRDMFGAAQNTTSTPSDVTTYGADLHGKAFGVELHSEYATSRVRPNTANAAVQTSNAFYARVATRKDNLAFDLNTPAAKFGNDTFGVSLYDLNYRKIDAGYNNVAGISEYGYGSYSRTSAQNIAYNPDTGVTAPFANLDRQAYTDANNDGTSDRNADGTVVATNTKIGQMGFGVKAAANLGPVAIGGYYDTSTGANGDNANRMTEAGGSAKVAYSIFSLRGTYNTLDSNRPQIYRDAAGTQIIGDAKVRRYAVQADVTPGLGLFVGAYYRDVNVNGVRSTTDRGLLGRGYLASSFEPGVGNNAYRTGLRCADNNFGTGTRDIDGVGGVLNPAVNLDQSRTATCFTSYGVEAGHAGDNANALVKDLFFRVGYSRVYVPTTATATTGDFSGSVTYGDARYDRKVGVANVRLAGSFSTTNTQLDSRPAGTRGAVGLIVRTDPLENVPFRPQFNGQVGYYTADNRVAAGNYNANATKYGAGVVLNDFLLPQTKIGVRYDGYMAQNRQYTPFDGDGTQGYFSDANNNRRTNLNGVYVEGAYQDLIFSYGTYTLSQKDLNGVEYGSGINNGQPARGQTFKISYKVNF
# notes: DR_2577 (SlpA), main S-layer protein of Deinococcus radiodurans strain R1; The introduction describes it as a homo-hexamer of ~760 kDa (trimer of dimers); the dimers are said (cited work) to be held by intermolecular disulfide bonds; also called SlpA
# Target: the molecule itself
# Experiment: SEC; Superose 6 10/300GL, 50 µl protein at 0.2 mg/ml, 0.05% β-DDM; 50 mM phosphate (pH >= 7) or 50 mM Na acetate (pH <= 6); control runs, runs with EDTA, at lower pH and with Cu2+; close-to-native conditions
protein,measurement,value
B1,stoichiometry N,6 and 2
